{
  "source": "patent US7345022B2",
  "about": "“Anti-fibril peptides” (Board of Supervisors of Louisiana State University and …, priority 2002, dated 2008)",
  "key": {"Aβ1-40": {"molecular_target": "Aβ1-40 (Homo sapiens, UniProt P05067)", "sequence (P05067 672-711 limits assumed)": "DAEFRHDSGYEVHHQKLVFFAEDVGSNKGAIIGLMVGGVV", "assay": "Interaction with Aβ1-40: aggregate and fibril formation (visual, scanning probe microscopy)", "type": "biochemical", "conditions": "for product of the interaction with Aβ1-40: preliminary studies", "experimental": "(3) AMY-2 self-aggregates at 50 μM. The interaction of β-Amyloid and AMY-2 is apparent visually. […] SPM images were taken of adsorbed peptide material on a hydrophilic surface (mica or muscovite). […] These non-fibrillar aggregates were ˜100 nm in height and appeared as clusters of aggregated peptide material. […] Another study to explore the later β-Amyloid aggregation (i.e., fibril formation) produced an image of elongated fibrils greater than 10 μm long and 8 nm high."}, "[1]": {"assay": "Self-aggregation of the peptide", "type": "physicochemical", "experimental": "Other strategies have included combinatorial approaches to screen short pentapeptides with L- or D-amino acids to develop small, mostly hydrophobic, inhibitors of Aβ1-40 fibril formation. […] Thus, these peptides can themselves become part of high order aggregates.\n(§1) wherein Dibg is C^α,α-diisobutylglycine; Dbzg is C^α,α-dibenzylglycine; and Dpg is C^α,α-dipropylglycine. The AMY-1 peptide inhibits aggregation at concentrations of ˜5 μM when incubated with the amyloidogenic peptide Aβ10-35 in phosphate buffer at 37° C., under conditions where the Aβ10-35 peptide alone would form amyloid fibrils. […] AMY-1 is also depicted in FIG. 3. FIG. 4 depicts the manner in which AMY-1 blocks further extension of a growing β-sheet formed from the Aβ peptide.\n(3) AMY-2 self-aggregates at 50 μM."}, "PC-12 cells": {"test_system": "PC-12 cells", "conditions": "MTT, reported by Pallitto et al.; cited from earlier work"}, "[2]": {"conditions": "prior pentapeptide inhibitors of Aβ1-40 fibril formation; cited from earlier work"}, "Aβ10-35": {"molecular_target": "T1, Aβ10-35 (Homo sapiens, UniProt P05067)", "T1 construct": "incubated with the amyloidogenic peptide Aβ10-35 in phosphate buffer at 37° C", "T1 sequence (P05067 681-706)": "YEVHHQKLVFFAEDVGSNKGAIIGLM", "assay": "Inhibition of Aβ10-35 aggregation on incubation in phosphate buffer", "type": "biochemical", "conditions": "incubated with Aβ10-35 in phosphate buffer at 37° C.", "experimental": "as §1"}, "[3]": {"test_system": "preformed β-amyloid fibrils", "assay": "Dissolution of preformed fibrils (SPM and TEM)", "type": "biochemical", "conditions": "preliminary", "experimental": "Preliminary experiments have confirmed that the novel peptides can promote the dissolution of existing fibrils. The ability of the peptide AMY-1 to dissolve preformed fibrils was assessed with both scanning probe microscopy (SPM) and transmission electron microscopy (TEM). […] A twisting appeared in the middle of the length of the fibril, as if the AMY-1 peptide was interpolating into it."}, "[4]": {"conditions": "adsorbed on hydrophilic surface (mica or muscovite), β-Amyloid1-40"}},
  "note": "*1 amine or outer side, *2 acyl side, *3 side chain or, on linkers, in order; H or OH if unused. Where no end group is shown, it is not given here. [ ]: non-standard residue; d: D form. Dbzg = C-alpha,alpha-dibenzylglycine, O=C(C(Cc1ccccc1)(Cc1ccccc1)N[*:1])[*:2]; Dibg = C-alpha,alpha-diisobutylglycine, CC(C)CC(CC(C)C)(N[*:1])C(=O)[*:2]; Dpg = CCCC(N)(CCC)C(=O)O",
  "data": [
    {"substance": "(Lys)7-Dibg-Val-Dbzg-Phe-Dpg-NH2 (KKKKKKK[Dibg]V[Dbzg]F[Dpg]-NH2; N-terminus assumed; SMILES CCCC(CCC)(NC(=O)[C@H](Cc1ccccc1)NC(=O)C(Cc1ccccc1)(Cc1ccccc1)NC(=O)[C@@H](NC(=O)C(CC(C)C)(CC(C)C)NC(=O)[C@H](CCCCN)NC(=O)[C@H](CCCCN)NC(=O)[C@H](CCCCN)NC(=O)[C@H](CCCCN)NC(=O)[C@H](CCCCN)NC(=O)[C@H](CCCCN)NC(=O)[C@@H](N)CCCCN)C(C)C)C(N)=O) [AMY-2]", "values": [
      {"measurement": "fibril formation (later aggregation study, image)", "setting": "Aβ1-40; 1:1 ratio of 50 μM β-Amyloid and peptide", "result": "no fibril formation"},
      {"measurement": "visual appearance of the solution", "setting": "Aβ1-40; added to β-amyloid at 1:1 ratio, 50 μM each, room temperature", "result": "the solution rapidly turned opaque"},
      {"measurement": "height of the non-fibrillar aggregates (SPM)", "setting": "Aβ1-40; [4]", "result": "~100", "unit": "nm"},
      {"measurement": "morphology of the interaction product (SPM images)", "setting": "Aβ1-40; [4]", "result": "large, amorphous aggregates"},
      {"measurement": "product of the interaction with Aβ1-40", "setting": "Aβ1-40; data not shown", "result": "large, non-fibril aggregate"},
      {"measurement": "concentration at which the peptide self-aggregates", "setting": "[1]; preliminary studies, data not shown", "result": 50, "unit": "µM"}
    ]},
    {"substance": "KLVF (listed as Homo sapiens)", "values": [
      {"measurement": "protective effect against Aβ toxicity", "setting": "PC-12 cells", "result": "protective effect against Aβ toxicity"}
    ]},
    {"substance": "KLVFF", "values": [
      {"measurement": "protective effect against Aβ toxicity", "setting": "PC-12 cells", "result": "protective effect against Aβ toxicity"},
      {"measurement": "self-aggregation (literature)", "setting": "[2]", "result": "aggregate and form insoluble precipitates"}
    ]},
    {"substance": "Lys-Dibg-Val-Dbzg-Phe-Dpg-(Lys)6-NH2 [AMY-1]", "values": [
      {"measurement": "concentration at which the peptide inhibits aggregation", "setting": "Aβ10-35", "result": "~5", "unit": "µM"},
      {"measurement": "fibril formation after long incubation with Aβ1-40", "setting": "Aβ1-40; 4.5 month-incubation, preliminary, data not shown", "result": "no massive fibrils were formed"},
      {"measurement": "product of the interaction with Aβ1-40", "setting": "Aβ1-40; data not shown", "result": "small, non-fibril aggregate"},
      {"measurement": "self-aggregation", "setting": "[1]", "result": "does not aggregate with itself"},
      {"measurement": "effect on preformed fibrils, SPM image", "setting": "[3]; SPM at 10×10 μm^2, on mica", "result": "less adsorbed Aβ protein on mica"},
      {"measurement": "effect on preformed fibrils, TEM", "setting": "[3]; preformed β-amyloid, TEM", "result": "the fibrillar structures were substantially frayed"}
    ]}
  ]
}
